Reference: IntAct's records for PubMed 22416126

B1: Paraspeckle component 1 (Homo sapiens), Q8WXF1-1 (parent)
chain: MMLRGNLKQVRIEKNPARLRALESAVGESEPAAAAAMALALAGEPAPPAPAPPEDHPDEEMGFTIDIKSFLKPGEKTYTQRCRLFVGNLPTDITEEDFKRLFERYGEPSEVFINRDRGFGFIRLESRTLAEIAKAELDGTILKSRPLRIRFATHGAALTVKNLSPVVSNELLEQAFSQFGPVEKAVVVVDDRGRATGKGFVEFAAKPPARKALERCGDGAFLLTTTPRPVIVEPMEQFDDEDGLPEKLMQKTQQYHKEREQPPRFAQPGTFEFEYASRWKALDEMEKQQREQVDRNIREAKEKLEAEMEAARHEHQLMLMRQDLMRRQEELRRLEELRNQELQKRKQIQLRHEEEHRRREEEMIRHREQEELRRQQEGFKPNYMENREQEMRMGDMGPRGAINMGDAFSPAPAGNQGPPPMMGMNMNNRATIPGPPMGPGPAMGPEGAANMGTPMMPDNGAVHNDRFPQGPPSQMGSPMGSRTGSETPQAPMSGVGPVSGGPGGFGRGSQGGNFEGPNKRRRY
partner: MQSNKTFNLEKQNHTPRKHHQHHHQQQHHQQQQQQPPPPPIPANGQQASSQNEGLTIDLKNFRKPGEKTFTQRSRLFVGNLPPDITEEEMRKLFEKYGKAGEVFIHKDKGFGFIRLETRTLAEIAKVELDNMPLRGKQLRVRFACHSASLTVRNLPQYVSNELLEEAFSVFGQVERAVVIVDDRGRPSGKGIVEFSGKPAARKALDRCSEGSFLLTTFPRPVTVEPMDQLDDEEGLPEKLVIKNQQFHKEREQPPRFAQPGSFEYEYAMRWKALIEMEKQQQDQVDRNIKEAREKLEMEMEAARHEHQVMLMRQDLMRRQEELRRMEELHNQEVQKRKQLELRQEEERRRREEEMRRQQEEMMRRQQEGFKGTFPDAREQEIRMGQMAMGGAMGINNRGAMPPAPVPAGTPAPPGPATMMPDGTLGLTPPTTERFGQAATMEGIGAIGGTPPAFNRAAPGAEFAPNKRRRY
B2: Non-POU domain-containing octamer-binding protein (Homo sapiens), Q15233 (parent)
chain: B1 partner
partner: B1 chain

Variants of: B1
Conditions: with nono_human NONO

Row | Variant | effect of a mutation on the interaction
1 | Y275A;W279A | decreasing interaction strength

Variants of: B2
Conditions: with PSPC1, Q8WXF1-1

Row | Variant | effect of a mutation on the interaction
2 | Y267A;W271A | decreasing interaction strength
